First the molecules themselves.
B1: P3 (VHH)
VHH: DVQLVESGGGLVQAGGSLRLSCAASGRTFSSYTMGWFHQAPGKEREFVAEIGGTGGNTGYADSVKGRFTISRDNAKNTVYLQMNSLKPEDTAVYYCAAVIGSPTDSSDYRSSLDYDYWGQGTQVTVSE
B2: P6 (VHH)
VHH: B1 VHH with D1H, S31R, G52S, I70M, A92G
B3: P11 (VHH)
VHH: DVQLVESGGGLVQAGGSLRLSCVASGRTFSTYTMGWFRQAPGKEREFVAHIGWSGSSTYYADSVKGRFTISRDNAKNTMYLQMNSLKPEDTAVYYCAVAIGSPVDSYRHSDPLEYDYWGQGTQVTVSE
B4: P9 (VHH)
VHH: DVQLVESGGGLVQAGGSLRLSCVASVASGRTFGWYDMGWFRQAPGKEREFVAAISWSGGSTYYADSVKGRSTISRDNAKNTVYLQMNSLKPEDTAVYYCAARGGGTSVDSDYDVGEFEYDYWGQGTQVTVSE
B5: P5 (VHH)
VHH: DVQLVESGGGLVQAGDSLRLSCAASGITFRWYTMAWFRQAPGKERDFVATINWSGSDTNYADSVKGRFTISRDNAKNTVTLQMNSLQPEDTAVYYCAGVPGTSLSGETDPRDYDYWGQGTQVTVSE
B6: P14 (VHH)
VHH: QVQLVESGGGLVQAGDSLRLSCTASGRTFSTYTMAWFRQAPGKEREFVAAISWSGTYYADSVKGRFTISRDNAKNTVYLQMNSLKPEDTAVYYCAAVIGSTVDTYSPSDPLEYDYWGQGTQVTVSS
B7: P15 (VHH)
VHH: QVQLVESGGGLVQAGGSLRLSCVASGRPFSSLDMGWFRQRPGKERDVVATINWTGDSTYYLDSVKGRFTISRDNAKNTVFLQMNSLKPEDTAVYYCAARGGGSSVDSEYDVGEFEYDYWGQGTQVTVSS
B8: P13 (VHH)
VHH: QVQLVESGGGLVQAGGSLRLSCAASGRTFSTYTMGWFRQAPGKEREFVAAVTWSETLYSDSVKGRFTISRDNAKNTVYLQMNSLKPEDTAVYYCAAVQGSPVDTIVVLTTSEEYDYWGQGTQVTVSS
B9: P4 (VHH)
VHH: HVQLVESGGGLVQAGGSLRLSCAAAGRTSSDYAMGWFRQAPGKEREFVSAINWSGISTYYADSVKGRFTISRDNAKNTVHLQMNSLKPEDTAVYYCAAEKLESLRNWHDPLMYDYWGQGTQVTVSE

Changes are numbered by the printed parent chain.

The values that follow come from patent US20230176070A1.

The first assay addresses GST fusion PDZ mutant protein (R46E:K48D) (mammalian (so in the source)) (UniProt P57105). Briefly: indirect ELISA, PDZ R46E:K48D coated.
In turn, B1 came in with a Mutant ELISA affinity (LogIC50 (oD450nm)) of 4.78.

B2 displayed a Mutant ELISA affinity (LogIC50 (oD450nm)) of 4.73.

B3 registered a Mutant ELISA affinity (LogIC50 (oD450nm)) of 0.

On to B4, for which the Mutant ELISA affinity (LogIC50 (oD450nm)) worked out at 2.61.

Regarding B5, the Mutant ELISA affinity (LogIC50 (oD450nm)) came out at 0.

B6: the Mutant ELISA affinity (LogIC50 (oD450nm)) was 3.74.

B7 displayed a Mutant ELISA affinity (LogIC50 (oD450nm)) of 1.66.

Take B8: the Mutant ELISA affinity (LogIC50 (oD450nm)) stood at 0.0071.

Take B9: the Mutant ELISA affinity (LogIC50 (oD450nm)) turned out to be 4.58.

The next assay has as its target T1, PDZ domain of mitochondrial outer membrane protein 25 (mammalian (so in the source)) (UniProt P57105).
T1 sequence (looked up): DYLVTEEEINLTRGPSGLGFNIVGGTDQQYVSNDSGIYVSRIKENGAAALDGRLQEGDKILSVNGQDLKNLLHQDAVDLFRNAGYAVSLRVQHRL
Briefly: indirect ELISA, wild type PDZ coated.
On to B1, for which the WT ELISA affinity (LogIC50 (oD450nm)) came out at 5.26.

B2 had a WT ELISA affinity (LogIC50 (oD450nm)) of 5.25.

With B3, the WT ELISA affinity (LogIC50 (oD450nm)) is 4.07.

Molecule B4 gave a WT ELISA affinity (LogIC50 (oD450nm)) of 4.88.

Regarding B5, the WT ELISA affinity (LogIC50 (oD450nm)) was determined as 4.7.

Regarding B6, the WT ELISA affinity (LogIC50 (oD450nm)) was 5.15.

The molecule B7 came in with a WT ELISA affinity (LogIC50 (oD450nm)) of 4.97.

The molecule B8 registered a WT ELISA affinity (LogIC50 (oD450nm)) of 4.45.

B9 displayed a WT ELISA affinity (LogIC50 (oD450nm)) of 4.42.

The target in the next assay is GST fusion PDZ mutant protein (R46E:K48D) (mammalian (so in the source)) (UniProt P57105). The assay can be described thus: ELISA, wild type PDZ against PDZ R46E:K48D.
As to B1, the Affinity fold change is 3.04 fold.

With B2, the Affinity fold change worked out at 3.32 fold.

The molecule B3 came in with an Affinity fold change of 11700 fold.

In turn, B4 showed an Affinity fold change of 185 fold.

For B5, the Affinity fold change turned out to be 50600 fold.

For the molecule B6, the Affinity fold change came out at 25.7 fold.

B7: the Affinity fold change was found to be 2060 fold.

In turn, B8 registered an Affinity fold change of 28000 fold.

As to B9, the Affinity fold change stood at 1 fold.
